Results as given in the domain aggregation screens of Martell et al. (2025).

Experiment: soluble fraction after stress (log2 fold change); higher = more stays soluble; pooled small domains, quantitative proteomics
Settings: stress: 50 degC
Procedure, shortened: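 After stress at 50°C, the amount of each protein still soluble was measured. This was done on pooled custom libraries of small protein domains, using high-throughput quantitative proteomics. The figure given is a base-two log fold change and stands for aggregation propensity, with higher values meaning more protein stays in solution.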

| Sequence | soluble fraction (log2) |
| --- | --- |
| HMGGYVVVGDKDGFWSVVSTPVSKAKAEELLKDTTFPKGEKGKIVSVAEAMSHKKVIGKEYLESGGT | 0.117 |
| HMGHASPGNREALQFALERHQARAAEFAEKAGLSIANASTKFKQLWEQGFLMRNESVADSGGVEFLYQR | -0.0221 |
| HMGHEISLNNSRFLKLLNKTKISISNDDTRHYLNGIFLHLTEAHGRQFLTGVATDSHRLSSSSLEID | -0.0045 |
| HMGHRQRRARARNRSMLEDIPGLGPKRRQQLLRQFGGLPQLMRAGVAELSQVPGISDSLARKIHAELHPES | -1.77 |
| HMGHYGQMTRDLIEKAKTYEEGEEKAALVLTIANLMKRHYLTWNRATVENTLIAEQLKEMSEGALTLPEDV | -0.51 |
| HMGIAEGSSVFVRVLAAEDGGRYTVSFAGRRFSVLSRQALGIGSAFRADVKVEKGQVLLVPR | -2.37 |
| HMGIAERKEKQKLEIRNAILEASRKLIVEEGFEKVTMRKIADLIEYSPTTVYLYFKDKNEILFHLHQ | -1.37 |
| HMGIDVSAFSDTALEVLRLQAAGYTTREIAQQLHITQRTVKYHASENYRKLDARNLVDAVQIAQSLHI | -1.41 |
| HMGIEIKLLMSFMTDSGRKVSLFVTDPREDVTETEIKQVMDLIIEKNIFAPNGEDIVSAKEAKIVQT | -1.25 |
| HMGIERTNADTSFSVNVYGKELIITSNKPLVVNIYAIDGTLVRTEQVTIGVNTVSGLPSGIYVVGQQKVVI | 0.297 |
| HMGIIVDMSKIKQMLQLSEAGHSNRKIALELGINKETVNNYMQLIRNGRLDIRQLLKMDDPELERRFHA | -0.329 |
| HMGIKLSDRQMQIVEIVKSQQPITSEQVAERLNLTRAALRSDLSILTMAGILEARPKVGYSLTGR | -0.334 |
| HMGILPDDVKLNIKEAKKIGFPIMLKAIHGGGGRGMMIVQSEDEFADAMKITKTEAKNSFGNGDLYFEKFF | 0.238 |
| HMGITRQQALQQINQSASPKKILNASLGKRGSEFVWDIGYLSKSGKLNYVTYSFRSGEQLNAIKN | -1.02 |
| HMGIVAGGTQSIATLRAIDTTDAQLYPDKILINVEDAGLYRLDRQSTATDDGNQVIKPTVGVGRWLKMTS | -0.11 |
| HMGIVVDGTMTLEGVAERYGMSVGELARVIGVPPEYSNERLGRLRKSYEFEMDDIRIYIIQKQ | -1.31 |
| HMGKAYMVPDVKNKSVNQAQLLLADKHMNGVVVDSSYVKELPAGIVLDQTPVGGMKVKEGRTVYLTINSD | -0.0262 |
| HMGKDIYLTSGWVEKFDELNEFSNSVDNYDRLNQFGMYENAIIGDTGVIKITDEMIFDLYEKIQVPVEAGP | -0.185 |
| HMGKEDLTAAIKKMTLNDKLDIHKIVANFQTNDSEEVITAVKWLMENNYLLKIKNNYTWNTKEK | -0.263 |
| HMGKHYLLKDDNGTITIYKILEDGTQEVYEKTEISTTYLPQTDNIGIKQGIRVNGDEALNELIENF | -0.0212 |
| HMGKKGPELSENEKSIFSILSKSGSMDLTTLKEASGLSNKQWDKGIKGLGKHGLTKVIKTEDALLVEVV | 0.0505 |
| HMGKKYVPGMAVKLSAVPLYAASTSKVPSTHVTGTYYLWDDEVVRGRLRITNLKSRVGISGQVTGWIDKDR | -1.23 |
| HMGKNIQAIRYKNNMTQDQVVAKLNLMGISITKSTYAKLETNRMNIKASELVALAKLFHTDINAFFSG | -3.24 |
| HMGKNYYEILGITKSASEEQVRKAFRGLAMEWHPDRNRSADSEERFKEINEAYQVLIDPKKRQMYDQYGR | 0.388 |
| HMGKPSSEELEALGRRTLEENVDVVEEILGGRDPKGKKIKYLEGLMMRALRGQETPEAVRRTLEELIFK | 0.0847 |
| HMGKRGKEMQTAVLAILRASDRPYSAYELLESLKDIYPKIAPPTVYRALAALTQRGQIRRLESLNAFI | -0.325 |
| HMGKRKDFTYTGNYFSEYKNQTFPSLSSFLKLVGKYENYGTIKRRVRFGWDIDEAILRENIN | -0.773 |
| HMGKSKAAQSSLVRSIMHQISDKNRGPMPLSEIIDRASIQSIDEAIVRSLVSRMKEQGEIYEPSLGTYEF | -0.209 |

| Sequence | soluble fraction (log2) |
| --- | --- |
| HMGKTIIQLATDYLIKNMQPKSLHDIESYVLTRKKIKKSSIGAILLSKPNIFGRTEDGLFGLRIWNNFQYT | -0.738 |
| HMGKTRSTDRTRRAILDAASDLMGKHGTSVSLARIAEAAGMSKGGLLHHFPSRNDLIRALGED | 0.189 |
| HMGKVNTRNRNEGKFYKNGKKKPANWEYRFEAAPVNGKRQQISDAGYPTEKAAYEAGIAAYEKYNSAGSVN | 0.0482 |
| HMGKVTILSNPVKDALVIMGLHNAETIDVRLFDNTGRLVMQGSQSRMDISSLSPGLYILQVNGKILKVIK | -2.21 |
| HMGLASEVKTEDVLNEEKYDFEPDLIGNNNEAIYQNKQTGSYVLFDRNQNKVTKVLSAGEVLNHSKYNE | -0.0697 |
| HMGLDQNTLDRVDDINDTLATGIEIGPETRGTIEELNETLANGLKAGFDEETLARVDELLRVVEDGLK | 0.0149 |
| HMGLGQRIKARREALGLSQARLGEAVGVSLQAVSNWERDEYLPDTARLPLIARALGLTPGQLME | 0.0172 |
| HMGLKDTEVYMPDVRGLIEEEAQTKLKASFLTMKVSYTSSDEVKKGYVISQAPSADSVVLKGASVTVIVS | -2.07 |
| HMGLLVPELTAEENVSLAAMIAGVPRQQARSISADLLNRLGLGQMLDRRMGEMSGGQAQRVAIAPIYGKF | -0.274 |
| HMGLNVSYRMDGENVVETIIFSGATMIRTVTPTGTMTIKTIENGSTSTAKVNADYSVYKKIYEAQY | -2.59 |
| HMGLPLETVVTHATKLEIVRDGRVSGSIGLSAGVKVDVIALEGDNLQVRYRSLSGRVPVAHTGLAALA | 0.105 |
| HMGLPPIATGVNDNMSFSQAFAAARAEVGAGGAFEWHGRVYGTYYKNEWDGMSAQERHDFEIAAIRGS | -0.166 |
| HMGLSIPLMGAKASDIEISTLNDEVQRKLKIIVKEQGHENLQRVVPLPSEAREIQAHFINGRLHLR | -0.0466 |
| HMGLYPYSGTPADNQEANERRIFDIYSTHLERIFSDFSGATLRTKRLVLRLMQELVHSDPVRMAGILDEL | 0.00204 |
| HMGMAQELMESRLTAVFTSGKDQLAVLQRKDGSTLKLGADSKPWRIESFDGRKAVFVSADQQRVERLL | -0.209 |
| HMGMGIGQIIKEKRTALKMTQNELAERLGVSQQSVTGWENNAAVPRESAVRGMMDIFGLSRNELFGEP | 0.331 |
| HMGMMTLGQRIAQYRKAMGISQEELGGRLGVSRQAVSKWETDAAAPDMENLLALAREFGVSVAELTETP | -0.0446 |
| HMGMTRPLFVTDPGLVRIGLVSPIFEKLGSGKLSPQLFDQVKEDPPEQTVFDGVEFARETGIDGVIGFG | -0.124 |
| HMGMVDKSMYSRYDVGDLVKVLRGPLEGSEGHITEINTDTGTVKVETVFFGRSTVVEVDFSEIDK | -0.281 |
| HMGNAQELQKKLEGLKGISGIEKLESDHYAEKYLVRITQPVDHKNPAAGTFTQRVIVAHVGFDRPTILVT | 0.511 |
| HMGNHRNMSAEEEAAILAPFKARAEAGELVEISEIAKAYQSAVDHPISRGQIYFVLHRHGWRKV | -0.926 |
| HMGNIALAIARFREMIAEDPNLQPVRLHLAMALMADHQDEAARGQLEKLRSDQLPDDIRKIVDDALAALR | -1.13 |
| HMGNIIITPNPASDFIKIISNSPIIKFGFYDIYGNTINKKFNDNSINISDLPVGMYLINLNERYFKLLK | -0.0951 |
| HMGNIITQEAAVKLAQDRVPNATLVKIEYDFDDGRPVYEGELREGRWEYEFEIDAATGEFLKWEKD | 0.04 |
| HMGNKWKPIILYLLSNGSMRFGMLNALIPTISKKVLTNQLKELENDGLLLRQSFAEIPPRVEYSLTEKA | -1.58 |
| HMGNLASGAYEQIKRRILSLEYLPGSILQERGLAEELGISRTPVREAIHRLSQEGWLKINSRKNIRVR | -1.98 |
| HMGNLASRVAEQLLDKMRGDSLVPGTRLPSEIAMAKHFGVSRTVMREAIARLKADGLLETRRGSGAFVLAT | -0.664 |
